Molecular target: T1, PKM2 (ab89364, Abcam) (human, UniProt P14618 1-531)
T1 construct: human M2 isoform of pyruvate kinase (PKM2), bought recombinant protein; see the vendor's sheet for ab89364; also called PKM2 protein; source: bought: Abcam (ab89364)
Assay: BLI; biotinylated TRIB2 loaded onto SSA biosensors, blocked with biocytin (5 μg/ml) for 60 s; PKM2 diluted in PBS as analyte; Octet data analysis software
Details: both partners purified

T1 sequence (P14618 whole entry, canonical isoform): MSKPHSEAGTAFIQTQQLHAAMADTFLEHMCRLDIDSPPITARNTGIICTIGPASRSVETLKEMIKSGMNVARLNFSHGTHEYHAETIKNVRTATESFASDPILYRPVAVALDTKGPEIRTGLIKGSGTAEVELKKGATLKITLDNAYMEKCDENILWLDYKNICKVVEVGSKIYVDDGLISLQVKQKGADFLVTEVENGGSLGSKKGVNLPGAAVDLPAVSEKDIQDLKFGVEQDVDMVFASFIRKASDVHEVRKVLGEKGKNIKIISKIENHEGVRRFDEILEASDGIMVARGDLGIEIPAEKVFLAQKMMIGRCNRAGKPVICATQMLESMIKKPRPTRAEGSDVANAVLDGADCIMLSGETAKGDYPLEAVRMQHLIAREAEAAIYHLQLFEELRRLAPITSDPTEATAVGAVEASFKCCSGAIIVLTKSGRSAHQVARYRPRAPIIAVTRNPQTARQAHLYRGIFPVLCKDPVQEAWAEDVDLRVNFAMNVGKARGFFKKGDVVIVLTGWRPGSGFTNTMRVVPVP

- Kd: 7.44 nM
B1: recombinant TRIB2 protein (TP301210, OriGene), biotinylated (natural protein, human, UniProt Q92519 1-343, looked up)
chain: MNIHRSTPITIARYGRSRNKTQDFEELSSIRSAEPSQSFSPNLGSPSPPETPNLSHCVSCIGKYLLLEPLEGDHVFRAVHLHSGEELVCKVFDISCYQESLAPCFCLSAHSNINQITEIILGETKAYVFFERSYGDMHSFVRTCKKLREEEAARLFYQIASAVAHCHDGGLVLRDLKLRKFIFKDEERTRVKLESLEDAYILRGDDDSLSDKHGCPAYVSPEILNTSGSYSGKAADVWSLGVMLYTMLVGRYPFHDIEPSSLFSKIRRGQFNIPETLSPKAKCLIRSILRREPSERLTSQEILDHPWFSTDFSVSNSAYGAKEVSDQLVPDVNMEENLDPFFN
modifications: biotinylated
notes: human Tribbles homologue 2 (TRIB2), bought recombinant protein; also called human TRIB2; source: bought: OriGene (TP301210)

Reference: PMC9256704, “Oncogenic TRIB2 interacts with and regulates PKM2 to promote aerobic glycolysis and lung cancer cell procession” (Cell Death Discovery, 2022)
